Measurements: patent US20090221680

Target: thrombin (alpha-thrombin) (Homo sapiens) (UniProt P00734+P00734)
Assay: filter

Q: Which Kd (2'-OMe inosine at 26, rest DNA [26 = 2'-OMe inosine (written as parent base G), rest DNA]) does the source give for “ACTGCCTAGGTTGGGTAGGGTGGTGGCAGT [ARC2699]” here?
A: 0.128 nM

Q: Which Kd (deoxyinosine at 15 [15]) does the source give for “ACTGCCTAGGTTGGGTAGGGTGGTGGCAGT [ARC2678]” here?
A: 1.43 nM

Q: Which Kd (2'-OMe inosine at 14, rest DNA [14]) does the source give for “ACTGCCTAGGTTGGGTAGGGTGGTGGCAGT [ARC2691]” here?
A: 2.28 nM

Q: “ACTGCCTAGGTTGGGTAGGGTGGTGGCAGT [ARC2673]” was tested. Which Kd (deoxyinosine at 4 [deoxyinosine at 4 (parent base G)]) did it give?
A: 0.207 nM

Q: With “ACTGCCTAGGTTGGGTAGGGTGGTGGCAGT [ARC2680]” as the sequence, how does the Kd (deoxyinosine at 19 [19]) read?
A: 0.24 nM

Q: “ACTGCCTAGGTTGGGTAGGGTGGTGGCAGT [ARC2687]” was tested. Which Kd (2'-OMe inosine at 4, rest DNA [4]) did it give?
A: 0.22 nM

Q: “ACTGCCTAGGTTGGGTAGGGTGGTGGCAGT [ARC2675]” was tested. Which Kd (deoxyinosine at 10 [10]) did it give?
A: 2.03 nM

Q: How did the Kd (2'-OMe inosine at 20, rest DNA [20]) turn out when “ACTGCCTAGGTTGGGTAGGGTGGTGGCAGT [ARC2695]” was run?
A: 2.08 nM

Q: With “ACTGCCTAGGTTGGGTAGGGTGGTGGCAGT [ARC2676]” as the sequence, how does the Kd (deoxyinosine at 13 [13]) read?
A: 0.698 nM

Q: For “ACTGCCTAGGTTGGGTAGGGTGGTGGCAGT [ARC2674]”, which Kd (deoxyinosine at 9 [9]) is on record?
A: 0.452 nM

Q: For “ACTGCCTAGGTTGGGTAGGGTGGTGGCAGT [ARC2692]”, which Kd (2'-OMe inosine at 15, rest DNA [15]) is on record?
A: 1.84 nM

Q: How did the Kd (deoxyinosine at 22 [22]) turn out when “ACTGCCTAGGTTGGGTAGGGTGGTGGCAGT [ARC2682]” was run?
A: 1.3 nM

Q: With “ACTGCCTAGGTTGGGTAGGGTGGTGGCAGT [ARC2700]” as the sequence, how does the Kd (2'-OMe inosine at 29, rest DNA [29 = 2'-OMe inosine (written as parent base G), rest DNA]) read?
A: 0.046 nM

Q: For “ACTGCCTAGGTTGGGTAGGGTGGTGGCAGT [ARC2684]”, which Kd (deoxyinosine at 25 [25]) is on record?
A: 0.188 nM

Q: With “ACTGCCTAGGTTGGGTAGGGTGGTGGCAGT [ARC2681]” as the sequence, how does the Kd (deoxyinosine at 20 [20]) read?
A: 0.334 nM

Q: Which Kd (deoxyinosine at 14 [14]) does the source give for “ACTGCCTAGGTTGGGTAGGGTGGTGGCAGT [ARC2677]” here?
A: 0.199 nM

Q: “ACTGCCTAGGTTGGGTAGGGTGGTGGCAGT [ARC2685]” was tested. Which Kd (deoxyinosine at 26 [26]) did it give?
A: 0.226 nM

Q: For “ACTGCCTAGGTTGGGTAGGGTGGTGGCAGT [ARC2679]”, which Kd (deoxyinosine at 18 [18]) is on record?
A: 0.355 nM

Q: For “ACTGCCTAGGTTGGGTAGGGTGGTGGCAGT [ARC2697]”, which Kd (2'-OMe inosine at 23, rest DNA [23]) is on record?
A: 1.56 nM

Q: How did the Kd (deoxyinosine at 29 [29]) turn out when “ACTGCCTAGGTTGGGTAGGGTGGTGGCAGT [ARC2686]” was run?
A: 0.189 nM

Q: For “ACTGCCTAGGTTGGGTAGGGTGGTGGCAGT [ARC2698]”, which Kd (2'-OMe inosine at 25, rest DNA [25 = 2'-OMe inosine (written as parent base G), rest DNA]) is on record?
A: 0.165 nM

Q: Which Kd (deoxyinosine at 23 [23]) does the source give for “ACTGCCTAGGTTGGGTAGGGTGGTGGCAGT [ARC2683]” here?
A: 0.151 nM
